Measured values as given in patent US7037497.

Assays:
[1] = molecular target: HIV-1JR-FL envelope glycoprotein gp120/gp41 on HeLa-EnvJR-FL+ cells (HIV-1 JR-FL); test: cell-based or functional assay
[2] = molecular target: CCR5 chemokine receptor on the cell surface (UniProt P51681); test: flow cytometry on L1.2-CCR5+ cells, PE anti-mouse IgG
[3] = molecular target: CCR5 chemokine receptor on the cell surface (UniProt P51681); test: flow cytometry on PHA/IL-2-stimulated PBMC
[4] = molecular target: CCR5 chemokine receptor on the cell surface (UniProt P51681)
[5] = molecular target: CCR5 chemokine receptor on the cell surface (UniProt P51681); test: cell-based or functional assay

UniProt P51681, sequence (P51681 whole entry): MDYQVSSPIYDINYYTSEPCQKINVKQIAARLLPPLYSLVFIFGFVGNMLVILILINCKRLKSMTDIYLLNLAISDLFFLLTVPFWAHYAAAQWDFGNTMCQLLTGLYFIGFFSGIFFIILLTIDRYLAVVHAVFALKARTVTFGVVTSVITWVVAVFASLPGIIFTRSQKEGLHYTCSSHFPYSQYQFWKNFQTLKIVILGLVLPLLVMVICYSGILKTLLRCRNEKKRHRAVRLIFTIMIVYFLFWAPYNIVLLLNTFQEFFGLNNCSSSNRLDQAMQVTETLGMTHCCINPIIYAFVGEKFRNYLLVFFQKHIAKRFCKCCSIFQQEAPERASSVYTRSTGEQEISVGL

Row | Substance | K (= IC50) of the median effect fit, inhibition of env-mediated membrane fusion (RET assay) [1] [mg/L] | % of cells stained (% of L1.2-CCR5+ cells) [2] | % of cells stained [3] | IC50 [4] [mg/L] | IC50, inhibition of JR-FL entry (luciferase reporter virus, U87MG-CD4+CCR5+ cells) [5] [mg/L] | IC50, inhibition of cell-cell fusion (RET assay, PM1 and HeLa-EnvJR-FL+ cells) [5] [mg/L] | K (= IC50) of the median effect fit, inhibition of cell-cell fusion (RET assay) [5] [mg/L] | fold difference of m.f.i. against PA9 [3] [fold] | IC50, inhibition of RANTES-induced calcium influx in L1.2-CCR5+ cells [5] [mg/L] | IC50 of calcium influx inhibition, PA14 against 2D7 [5] [fold]
1 | CD4-IgG2 (from UniProt P01730 26-204; P01730 26-204) (Fc fusion) | 0.31 |  |  |  |  |  |  |  |  | 
2 | T-20 peptide | 0.017 |  |  |  |  |  |  |  |  | 
3 | anti-CCR5 mAb 2D7 (antibody) |  | > 90 | > 20 % of PBMC | 1.38 | 0.026 | 1.6 | 0.36 |  |  | 
4 | anti-CCR5 monoclonal antibody PA14 (ATCC No. HB-12610) |  | > 90 | > 20 % of PBMC | 1.58 | 0.024 | 1.7 |  | 7 | 50 | 8
